Reference: paper PMC8016844, “Grb2 binding induces phosphorylation-independent activation of Shp2” (Communications Biology, 2021)

Biological target: T1, Shp2 N-terminal SH2 domain (Shp2_(NSH2)) (UniProt Q06124 6-102)
T1 construct: Shp2 (PTPN11), N-terminal SH2 domain; Atto 488 labelled in MST; uniformly 15N-labelled in the NMR titration; Perturbed residues up to Y100 are named, so the construct reaches at least residue 100; also called Shp2-NSH2 domain; source: E. coli BL21 (DE3), pET28b, purified (Talon buffers, Superdex SD75)
T1 sequence (looked up): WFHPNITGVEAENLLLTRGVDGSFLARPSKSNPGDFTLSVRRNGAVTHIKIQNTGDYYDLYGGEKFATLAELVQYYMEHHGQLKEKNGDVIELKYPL
Test: MST; target protein labelled with Atto 488 NHS ester, 100 nM; unlabelled ligand serially diluted; Monolith NT.115; 25 °C; 20 mM HEPES pH 7.5, 150 mM NaCl, 0.5 mM TCEP, 0.005% Tween 20
Details: both partners purified

Kd: 422 ± 21.5 µM
B1: isolated NSH3 domain of Grb2 (Grb2_(NSH3)) (domain or fragment)
chain: MEAIAKYDFKATADDELSFKRGDILKVLNEECDQNWYKAELNGKDGFIPKNYIEMKPH
